Test results from patent publication US10334848B2, “Methods and compositions for weed control using EPSPS polynucleotides” (Monsanto Technology LLC, priority 2014, dated 2019).

Experiments:
[1] = test system: glyphosate-resistant Amaranthus palmeri plants (“R-22”); test: Sensitization of glyphosate-resistant Palmer amaranth to glyphosate by topical dsRNA trigger, then WEATHERMAX glyphosate; assay type: in vivo; settings: glyphosate 1.5 lb/ac one day after, four replications
Experimental: Double stranded RNA (dsRNA) triggers comprising polynucleotide sequences of SEQ ID NOs: 3 and 4, SEQ ID NOs: 5 and 6, and SEQ ID NOs: 7 and 8 were produced and the triggers were formulated with 0.5% SILWET® L-77, 2% AMS, and 20 mM phosphate buffer to the desired concentration. The trigger formulations were then topically applied to the leaves of glyphosate-resistant Amaranthus palmeri plants (“R-22”). Control plants were either untreated or treated with the 0.5% SILWET® L-77, 2% AMS, and 20 mM phosphate buffer solution. One day after treatment, WEATHERMAX® brand glyphosate herbicide (RU Wmax, Monsanto, St Louis, Mo.) was applied to the plants at 1.5 lb/ac. 11 days after treatment (DAT) with EPSPS trigger polynucleotides the percent growth reduction of the dsRNA treated plants was assessed relative to untreated control plants by visual score. At 14 DAT the fresh weight of the dsRNA treated and control plants were determined. Four replications were performed per treatment. […] See also FIG. 1.

[2] = test system: glyphosate-resistant Waterhemp (Amaranthus rudis); test: Sensitization of glyphosate-resistant Waterhemp to glyphosate by topical dsRNA trigger (Example 3); assay type: in vivo; settings: 8 nmol trigger; glyphosate 1.5 lb/ac one day after; 14 DAT; compared to plants treated with glyphosate alone
Experimental: The efficacies of mid-sized polynucleotide trigger molecules comprising SEQ ID NOs: 3 and 4 or SEQ ID NOs: 5 and 6, were assessed in glyphosate-resistant Waterhemp (Amaranthus rudis) in relation to a 24-mer trigger comprising SEQ ID NOs: 7 and 8. dsRNA triggers comprising polynucleotide sequences of SEQ ID NOs: 3 and 4, SEQ ID NOs: 5 and 6, and SEQ ID NOs: 7 and 8 were produced and the triggers were each formulated with 0.5% SILWET® L-77, 2% AMS, and 20 mM phosphate buffer to a concentration of 8 nmol. The trigger formulations were then topically applied to the leaves of glyphosate-resistant Waterhemp. Control plants were either untreated or treated with a solution of 0.5% SILWET® L-77, 2% AMS, and 20 mM phosphate buffer. One day after treatment with the trigger formulation, WEATHERMAX® brand glyphosate herbicide was applied to the plants at 1.5 lb/ac. Four replications were performed per treatment. The fresh weight of the plants was determined 14 DAT with EPSPS trigger polynucleotides and the fresh weight % compared to control plants (treated with WEATHERMAX® brand glyphosate herbicide alone) was calculated.

[3] = test system: glyphosate-resistant Amaranthus palmeri plants (“R-22”); settings: stated as known; cited from earlier work
[4] = test system: glyphosate-resistant Waterhemp plants (“WH13”); settings: stated as known; cited from earlier work
[5] = test system: EPSPS mRNA; test: EPSPS mRNA reduction in Palmer protoplasts; assay type: cell-based; settings: 6 ug dose of dsRNA trigger; Amaranthus palmeri protoplasts; FIG. 2
Experimental: The activities of mid-sized bioactive polynucleotide trigger molecules corresponding to SEQ ID NOs: 3 and 4 or SEQ ID NOs: 5 and 6 were assessed in Amaranthus palmeri protoplasts. A 6 ug dose of each dsRNA trigger (SEQ ID NO 3/4 or SEQ ID NO 5/6) was added to Amaranthus palmeri protoplasts.

[6] = test system: glyphosate-resistant Waterhemp plants (“WH13”); test: Sensitization of glyphosate-resistant Waterhemp WH13 to glyphosate, 2-16 nmol trigger (Example 5, FIG. 3); assay type: in vivo; settings: 2, 4, 8 or 16 nmol trigger, glyphosate 1.5 lb/ac one day after, plants at 14 days after treatment
Experimental: The efficacies of mid-sized bioactive polynucleotide trigger molecules
Double stranded RNA (dsRNA) triggers comprising polynucleotide sequences of SEQ ID NOs: 3 and 4, SEQ ID NOs: 5 and 6, and SEQ ID NOs: 7 and 8 were produced and the bioactive trigger polynucleotides were formulated with 0.5% SILWET® L-77, 2% AMS, and 20 mM phosphate buffer to a concentration of 2 nmol, 4 nmol, 8 nmol or 16 nmol. The trigger formulations were then topically applied to the leaves of glyphosate-resistant Waterhemp plants (“WH13”). Control plants were either untreated or treated with the 0.5% SILWET® L-77, 2% AMS, and 20 mM phosphate buffer solution. One day after treatment, WEATHERMAX® brand glyphosate herbicide (RU Wmax, Monsanto, St Louis, Mo.) was applied to the plants at 1.5 lb/ac. Four replications were performed per treatment.

[7] = test system: glyphosate-resistant Waterhemp plants (“WH13”); test: Tiling of EPSPS cDNA: dsRNA trigger testing with glyphosate, fresh weight (Example 7, FIG. 4); assay type: in vivo; settings: 8 nmol trigger, glyphosate 1.5 lb/ac one day after, 14 days after treatment, three replications
Experimental: The EPSPS cDNA of SEQ ID NO: 1 was tiled across the entire length of the cDNA to identify target sequences for bioactive trigger polynucleotides covering as shown in Table 5. The target nucleotide sequence were chosen to be approximately 47-62 bp in length. Bioactive trigger polynucleotides comprising a nucleotide sequence having at least 85% identity or complementarity to SEQ ID NOs: 36-66 were tested for the ability to sensitize glyphosate-resistant Waterhemp to glyphosate.
Double stranded RNA (dsRNA) triggers comprising polynucleotide sequences corresponding to SEQ ID NOs: 36-62 were produced and the bioactive trigger polynucleotides were formulated with 0.5% SILWET® L-77, 2% AMS, and 20 mM phosphate buffer to a final concentration of 8 nmol. The trigger formulations were then topically applied to the leaves of glyphosate-resistant Waterhemp plants (“WH13”). Control plants were either untreated or treated with the formulation 0.5% SILWET® L-77, 2% AMS, and 20 mM phosphate “buffer” solution. Additionally dsRNA comprising SEQ ID NOs: 7 and 8 (24-mer EPSPS trigger) was applied as a control. One day after treatment, WEATHERMAX® brand glyphosate herbicide (RU Wmax, Monsanto, St Louis, Mo.) was applied to the plants at 1.5 lb/ac.
Three replications were performed per treatment.

SEQ ID NO 7/8: dsRNA 24mer EPSPS Trigger (SEQ ID NO 7) and Reverse Complement (SEQ ID NO 8), known to sensitize glyphosate-resistant weeds; control (sense AUGCCAGAUGUUGCUAUGACUCUU; antisense AAGAGUCAUAGCAACAUCUGGCAU; listed as RNA, chemistry not given here) [reference compound]
visual 11-DAT Average (percent growth reduction relative to untreated control plants by visual score) ([1]; 2 nmole trigger): 47.5%
Fresh weight 14-DAT Average ([1]; 2 nmole trigger): 19.0
visual 11-DAT Average (percent growth reduction relative to untreated control plants by visual score) ([1]; 4 nmole trigger): 88.8%
Fresh weight 14-DAT Average ([1]; 4 nmole trigger): 95.3
visual 11-DAT Average (percent growth reduction relative to untreated control plants by visual score) ([1]; 8 nmole trigger): 90.0%
Fresh weight 14-DAT Average ([1]; 8 nmole trigger): 91.8
visual 11-DAT Average (percent growth reduction relative to untreated control plants by visual score) ([1]; 16 nmole trigger): 85.8%
Fresh weight 14-DAT Average ([1]; 16 nmole trigger): 93.7
% Control Fresh wt. average [2]: 85%
sensitization of glyphosate-resistant Palmer amaranth to glyphosate, prior knowledge (in words) [3]: known to sensitize glyphosate-resistant Palmer amaranth to glyphosate
sensitization of glyphosate-resistant Waterhemp to glyphosate, prior knowledge (in words) [4]: known to sensitize glyphosate-resistant Waterhemp to glyphosate

B1: SEQ ID NO 5/6: dsRNA trigger: 53mer EPSPS Trigger (SEQ ID NO 5) and Reverse Complement (SEQ ID NO 6), positions 1189-1241 of Amaranthus palmeri EPSPS cDNA (nucleic acid)
sense: GACGUCAACAUGAACAAAAUGCCAGAUGUUGCUAUGACUCUUGCAGUUGUUGC
antisense: GCAACAACUGCAAGAGUCAUAGCAACAUCUGGCAUUUUGUUCAUGUUGACGUC
modifications: double-stranded RNA trigger, further chemistry not given here
visual 11-DAT Average (percent growth reduction relative to untreated control plants by visual score) ([1]; 2 nmole trigger): 48.8%
Fresh weight 14-DAT Average ([1]; 2 nmole trigger): 18.2
visual 11-DAT Average (percent growth reduction relative to untreated control plants by visual score) ([1]; 4 nmole trigger): 41.3%
Fresh weight 14-DAT Average ([1]; 4 nmole trigger): 94.0
visual 11-DAT Average (percent growth reduction relative to untreated control plants by visual score) ([1]; 8 nmole trigger): 93.8%
Fresh weight 14-DAT Average ([1]; 8 nmole trigger): 96.2
visual 11-DAT Average (percent growth reduction relative to untreated control plants by visual score) ([1]; 16 nmole trigger): 81.3%
Fresh weight 14-DAT Average ([1]; 16 nmole trigger): 90.7
% Control Fresh wt. average [2]: 83%
EPSPS mRNA reduction vs. control [5]: 84%
sensitization of glyphosate-resistant Waterhemp plants to glyphosate (in words) [6]: sensitize glyphosate-resistant Waterhemp plants to glyphosate
efficacy in sensitizing glyphosate-resistant Waterhemp to glyphosate (in words, from fresh weight) [7]: good efficacy

B2: SEQ ID NO 3/4: dsRNA trigger: 50mer EPSPS Trigger (SEQ ID NO 3) and Reverse Complement (SEQ ID NO 4), positions 398-447 of Amaranthus palmeri EPSPS cDNA (nucleic acid)
sense: GAACUCUUGGUUUAAAAGUGGAGGAUGAUAGUACAGCCAAAAGGGCAGUC
antisense: GACUGCCCUUUUGGCUGUACUAUCAUCCUCCACUUUUAAACCAAGAGUUC
modifications: double-stranded RNA trigger, further chemistry not given here
visual 11-DAT Average (percent growth reduction relative to untreated control plants by visual score) ([1]; 2 nmole trigger): 46.3%
Fresh weight 14-DAT Average ([1]; 2 nmole trigger): 24.0
visual 11-DAT Average (percent growth reduction relative to untreated control plants by visual score) ([1]; 4 nmole trigger): 28.8%
Fresh weight 14-DAT Average ([1]; 4 nmole trigger): 94.7
visual 11-DAT Average (percent growth reduction relative to untreated control plants by visual score) ([1]; 8 nmole trigger): 88.3%
Fresh weight 14-DAT Average ([1]; 8 nmole trigger): 88.4
visual 11-DAT Average (percent growth reduction relative to untreated control plants by visual score) ([1]; 16 nmole trigger): 90.0%
Fresh weight 14-DAT Average ([1]; 16 nmole trigger): 97.0
% Control Fresh wt. average [2]: 78%
EPSPS mRNA reduction vs. control [5]: 69%
sensitization of glyphosate-resistant Waterhemp plants to glyphosate (in words) [6]: sensitize glyphosate-resistant Waterhemp plants to glyphosate
efficacy in sensitizing glyphosate-resistant Waterhemp to glyphosate (in words, from fresh weight) [7]: good efficacy
